{
  "source": "paper PMC5098442",
  "key": {"[1]": {"target": "recombinant soluble TACE ECD (human) (UniProt P78536)", "experiment": "SPR"}, "[2]": {"target": "soluble TACE M-domain (wild type) (Homo sapiens) (UniProt P78536)", "experiment": "SPR"}},
  "data": [
    {"substance": "MEDI3622 (antibody)", "values": [
      {"measurement": "Kd", "setting": "[1]", "result": 2, "unit": "nM"},
      {"measurement": "Kd", "setting": "[2]", "result": 2.3, "unit": "nM"}
    ]}
  ]
}
